Experimental data reported in patent US20220289816A1, “IMMUNOTHERAPY WITH B*07 RESTRICTED PEPTIDES AND COMBINATION OF PEPTIDES AGAINST CANCERS AND RELATED METHODS” (Immatics Biotechnologies GmbH, priority 2018, published 2022).

The substances below were run against HLA-B*07 (Homo sapiens, UniProt P01889) (assay: MHC binding assay (UV-ligand exchange, ELISA of stabilized MHC complexes)). Settings: peptide exchange yield on HLA-B*07, UV-ligand exchange.
Outline: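 Peptide–MHC complexes were made by UV-ligand exchange, in which a UV-cleavable peptide is replaced by the test peptide. Exchange yield was measured by ELISA of stabilized complexes on streptavidin-coated plates, using HRP anti-β2m detection (1 h, 37 °C), TMB substrate and absorbance at 450 nm.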

**Q.** With “91 (FPRLVGPDFF; listed as Homo sapiens) [compound 91]” as the substance, how does the Peptide exchange read?
**A.** ++++ (>75% = ++++)

**Q.** How did the Peptide exchange turn out when “374 (KPRNMTGLDL; listed as Homo sapiens) [compound 374]” was run?
**A.** ++++ (>75% = ++++)

**Q.** Which Peptide exchange does the source give for “306 (RPFPLALL; listed as Homo sapiens) [compound 306]” here?
**A.** +++ (>50 = +++)

**Q.** For “185 (RPVLTASSF; listed as Homo sapiens) [compound 185]”, which Peptide exchange is on record?
**A.** ++++ (>75% = ++++)

**Q.** Which Peptide exchange does the source give for “260 (LVQSSRSEV; listed as Homo sapiens) [compound 260]” here?
**A.** ++++ (>75% = ++++)

**Q.** How did the Peptide exchange turn out when “207 (VPSDITTAF; listed as Homo sapiens) [compound 207]” was run?
**A.** +++ (>50 = +++)

**Q.** For “41 (MPAGGGPRSL; listed as Homo sapiens) [compound 41]”, which Peptide exchange is on record?
**A.** ++++ (>75% = ++++)

**Q.** “212 (VPYAAQAAL; listed as Homo sapiens) [compound 212]” was tested. Which Peptide exchange did it give?
**A.** ++++ (>75% = ++++)

**Q.** Which Peptide exchange does the source give for “216 (LPWEQNEQV; listed as Homo sapiens) [compound 216]” here?
**A.** +++ (>50 = +++)

**Q.** How did the Peptide exchange turn out when “246 (RPILKEQSSSSF; listed as Homo sapiens) [compound 246]” was run?
**A.** ++++ (>75% = ++++)

**Q.** How did the Peptide exchange turn out when “483 (KPAAAGVKKVA; listed as Homo sapiens) [compound 483]” was run?
**A.** +++ (>50 = +++)

**Q.** With “210 (IPENRVVSY; listed as Homo sapiens) [compound 210]” as the substance, how does the Peptide exchange read?
**A.** ++ (>20% = ++)

**Q.** Which Peptide exchange does the source give for “465 (VPKSLPYVL; listed as Homo sapiens) [compound 465]” here?
**A.** ++++ (>75% = ++++)

**Q.** With “94 (LPMSKRQEY; listed as Homo sapiens) [compound 94]” as the substance, how does the Peptide exchange read?
**A.** +++ (>50 = +++)

**Q.** “31 (RPGPSDPAA; listed as Homo sapiens) [compound 31]” was tested. Which Peptide exchange did it give?
**A.** +++ (>50 = +++)

**Q.** For “255 (VPSHWMVAL; listed as Homo sapiens) [compound 255]”, which Peptide exchange is on record?
**A.** ++++ (>75% = ++++)

**Q.** With “273 (TDTPSTTPTTI; listed as Homo sapiens) [compound 273]” as the substance, how does the Peptide exchange read?
**A.** ++ (>20% = ++)

**Q.** With “47 (RPRQTGALM; listed as Homo sapiens) [compound 47]” as the substance, how does the Peptide exchange read?
**A.** ++++ (>75% = ++++)

**Q.** How did the Peptide exchange turn out when “240 (RVMLPKAAL; listed as Homo sapiens) [compound 240]” was run?
**A.** +++ (>50 = +++)

**Q.** How did the Peptide exchange turn out when “263 (SQRPPATSQA; listed as Homo sapiens) [compound 263]” was run?
**A.** ++ (>20% = ++)

**Q.** Which Peptide exchange does the source give for “344 (VPYPSPTCV; listed as Homo sapiens) [compound 344]” here?
**A.** ++++ (>75% = ++++)

**Q.** Which Peptide exchange does the source give for “227 (RPGTGQGGL; listed as Homo sapiens) [compound 227]” here?
**A.** +++ (>50 = +++)

**Q.** For “468 (LPSLHVLVL; listed as Homo sapiens) [compound 468]”, which Peptide exchange is on record?
**A.** ++++ (>75% = ++++)

**Q.** How did the Peptide exchange turn out when “487 (IPWFIKTAF; listed as Homo sapiens) [compound 487]” was run?
**A.** ++++ (>75% = ++++)

**Q.** With “348 (HPAPPVTSA; listed as Homo sapiens) [compound 348]” as the substance, how does the Peptide exchange read?
**A.** +++ (>50 = +++)

**Q.** Which Peptide exchange does the source give for “146 (SPTRGSEF; listed as Homo sapiens) [compound 146]” here?
**A.** ++++ (>75% = ++++)

**Q.** “370 (AAHEFGHVL; listed as Homo sapiens) [compound 370]” was tested. Which Peptide exchange did it give?
**A.** ++ (>20% = ++)

**Q.** For “319 (RPLDTFRVL; listed as Homo sapiens) [compound 319]”, which Peptide exchange is on record?
**A.** ++++ (>75% = ++++)

**Q.** How did the Peptide exchange turn out when “289 (LPYEKVSRL; listed as Homo sapiens) [compound 289]” was run?
**A.** +++ (>50 = +++)

**Q.** Which Peptide exchange does the source give for “249 (SPRSGVLL; listed as Homo sapiens) [compound 249]” here?
**A.** +++ (>50 = +++)

**Q.** With “320 (APMHIDRNIL; listed as Homo sapiens) [compound 320]” as the substance, how does the Peptide exchange read?
**A.** ++++ (>75% = ++++)

**Q.** For “188 (HAAASFETL; listed as Homo sapiens) [compound 188]”, which Peptide exchange is on record?
**A.** ++ (>20% = ++)

**Q.** Which Peptide exchange does the source give for “316 (NPREPEKSL; listed as Homo sapiens) [compound 316]” here?
**A.** +++ (>50 = +++)
